Source: PMC11546159

Target: HLA-A*02:01 on the surface of T2 cells
Test: FACS, anti-HLA antibody staining of peptide-pulsed T2 cells (% HLA-A*02+)
Details: peptide 50 μM
[1] = parent: est. 77, read off a plot

Row | Substance | response (parent: 79) [%] | response [1] [%]
1 | HPV16 E6 29-38 peptide C9A | 60 | 58
2 | HPV16 E6 29-38 peptide D4A | 1.9 | 
3 | HPV16 E6 29-38 peptide E8A | 74 | 76
4 | HPV16 E6 29-38 peptide H3A | 84 | 81
5 | HPV16 E6 29-38 peptide I2A | 2 | 
6 | HPV16 E6 29-38 peptide I5A | 33 | 34
7 | HPV16 E6 29-38 peptide I6A | 71 | 69
8 | HPV16 E6 29-38 peptide L7A | 2.4 | 
9 | HPV16 E6 29-38 peptide T1A | 79 | 79
10 | HPV16 E6 29-38 peptide V10A | 2 | 
